The results in this text go back to patent US20240132626A1.

The experiment addresses Soluble human CD137 ECD protein (human) (UniProt Q07011). Put plainly: SPR, captured via anti-human kappa, soluble ECD injected. In general terms: SPR reads the build-up and loss of mass on a sensor chip optically.

Sequence of Urelumab (antibody) (VH): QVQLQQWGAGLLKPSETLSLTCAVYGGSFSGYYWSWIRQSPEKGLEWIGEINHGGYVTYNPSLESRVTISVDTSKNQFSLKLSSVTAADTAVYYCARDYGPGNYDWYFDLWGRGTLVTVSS
Sequence of Urelumab (antibody) (VL): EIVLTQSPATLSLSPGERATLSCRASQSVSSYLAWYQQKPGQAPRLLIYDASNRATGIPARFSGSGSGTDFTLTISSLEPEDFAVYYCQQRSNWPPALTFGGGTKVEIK
Sequence of Soluble human CD137 ECD protein (human) (Q07011 24-186): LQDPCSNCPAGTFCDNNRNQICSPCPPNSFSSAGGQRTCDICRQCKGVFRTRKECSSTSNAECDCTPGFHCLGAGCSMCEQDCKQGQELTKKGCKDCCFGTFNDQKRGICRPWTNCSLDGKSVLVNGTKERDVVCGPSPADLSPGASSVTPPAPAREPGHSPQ

Usually Kd stands for the free concentration of one partner at which half of the binding sites on the other are occupied at equilibrium, for simple one-to-one binding. Read a low Kd as a tighter complex. For orientation: koff means a measure of how fast the partners let go of each other. Read a high koff as a short-lived complex. The term kon denotes the second-order rate constant of association. Low values mean slower complex formation, high ones faster complex formation. With Urelumab (antibody), the Kd was 11 nM, the koff amounted to 0.0023 s⁻¹ and the kon was 210000 M⁻¹ s⁻¹.
